Molecular target: FLAG-Mfn2 (UniProt O95140)
Test: co-IP

Sequence of UniProt O95140 (O95140 whole entry): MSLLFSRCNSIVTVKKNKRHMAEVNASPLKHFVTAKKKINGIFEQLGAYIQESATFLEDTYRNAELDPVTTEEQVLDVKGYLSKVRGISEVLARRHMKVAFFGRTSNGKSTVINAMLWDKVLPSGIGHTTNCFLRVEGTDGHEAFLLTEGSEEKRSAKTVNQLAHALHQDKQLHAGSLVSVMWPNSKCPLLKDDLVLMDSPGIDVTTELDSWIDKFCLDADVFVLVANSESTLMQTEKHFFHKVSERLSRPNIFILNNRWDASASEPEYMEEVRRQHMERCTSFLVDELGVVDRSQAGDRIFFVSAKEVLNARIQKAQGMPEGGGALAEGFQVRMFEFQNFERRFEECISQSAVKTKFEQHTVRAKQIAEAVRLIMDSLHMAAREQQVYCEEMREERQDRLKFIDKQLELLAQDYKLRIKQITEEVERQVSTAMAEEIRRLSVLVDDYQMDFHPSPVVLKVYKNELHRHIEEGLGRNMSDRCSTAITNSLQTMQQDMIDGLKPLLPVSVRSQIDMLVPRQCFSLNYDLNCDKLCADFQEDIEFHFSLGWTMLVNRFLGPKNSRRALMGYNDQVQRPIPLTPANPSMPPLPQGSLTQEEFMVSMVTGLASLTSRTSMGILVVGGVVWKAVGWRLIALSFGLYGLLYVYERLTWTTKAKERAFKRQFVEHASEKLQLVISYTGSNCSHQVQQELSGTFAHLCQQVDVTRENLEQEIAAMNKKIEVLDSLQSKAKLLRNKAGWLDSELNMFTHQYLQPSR

- percent of GFP-Bcl-xL/Bax H5 bound to FLAG-Mfn2: 3%
Substance: GFP-Bcl-xL/Bax H5

Source: article PMC2970747
